{
  "source": "patent US20020077289A1",
  "about": "“Angiostatin and endostatin binding proteins and methods of use” (priority 2000, published 2002)",
  "molecules": {"B1": {"name": "rhEndostatin: recombinant human Endostatin, antiangiogenic fragment of a C-terminal non-collagenous region of a collagen protein, produced in P. pastoris (protein)", "chain": "HSHRDFQPVLHLVALNSPLSGGMRGIRGADFQCFQQARAVGLAGTFRAFLSSRLQDLYSIVRRADRAAVPIVNLKDELLFPSWEALFSGSEGPLKPGARIFSFDGKDVLRHPTWPQKSVWHGSDPNGRRLTESYCETWRTEAPSATGQASSLLGGRLLGQSAASCHHAYIVLCIENSFMTASK"}},
  "key": {"[1]": {"target": "T1, rhTM3 (human tropomyosin isoform 3) (Homo sapiens, UniProt P09493)", "T1 construct": "made in house; host or cells: E. coli BL21 (DE3), pET-21a(+)", "T1 sequence (P09493 1-284 isoform P09493-3)": "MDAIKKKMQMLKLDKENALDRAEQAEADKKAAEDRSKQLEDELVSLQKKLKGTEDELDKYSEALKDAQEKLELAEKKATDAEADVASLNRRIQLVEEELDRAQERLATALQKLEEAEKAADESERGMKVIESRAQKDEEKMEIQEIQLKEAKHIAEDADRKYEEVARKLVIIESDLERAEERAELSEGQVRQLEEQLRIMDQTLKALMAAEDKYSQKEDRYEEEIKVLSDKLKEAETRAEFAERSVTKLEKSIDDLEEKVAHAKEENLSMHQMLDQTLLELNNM", "experiment": "Surface plasmon resonance (BIAcore) binding to immobilized rhTM3", "conditions": "steady state model; soluble rhEndostatin over immobilized rhTM3 (3200 RU); 25° C; read-out: dissociation constant (KD) for the rhEndostatin/rhTM3 interaction", "procedure": "(A), 0, 10, 20, 40, 80 and 160 micromolar (μM) of rhEndostatin were injected at 5 microliters per minute (μl/minute) for 960 seconds through a biosensor flow cell that had been activated and blocked as a control for bulk refractive index and subsequently through a flow cell to which 3200 response units (RU) of rhTM3 had been immobilized. The binding kinetics were recorded and the differences between the two curves plotted for each rhEndostatin concentration. (B), 0, 11.5, 23 and 46 micromolar (μM) of rhAngiostatin were injected at 5 microliters per minute (μl/minute) for 900 seconds over a flow cell containing 3200 RU of rhTM3 as above. Samples were run in duplicate, the data corrected for bulk shift and the average of the 2 curves plotted. (C), Injection of 5 micromolar (μM) of rhEndostatin at 5 microliters per minute (μl/minute) for 240 seconds in the presence of 0, 6, 15, 30 and 45 micromolar (μM) of soluble rhTM3 over a flow cell containing 2000 RU of rhTM3. Samples were run in duplicate, the reference cell values subtracted and the average of each of the 2 curves plotted. The spikes in RU seen at the beginning and end of each injection are due to lag in flow caused by the rhTM3 and reference cells being non-adjacent.\nInteractions between purified soluble rhEndostatin and rhTM3 were evaluated by surface plasmon resonance using the BIAcore 3000 (BiaCore, Piscataway, N.J.). The purified rhTM3 was immobilized on the flow cell of a CM-5 BIAcore biosensor chip. The running buffer was 0.01 M HEPES, pH 7.4, 0.15M NaCl and 0.005% polysorbate 20 (v/v). The competition experiments involving soluble rhTM3 were performed using PBS pH 7.4 as running buffer. All measurements were performed at 25° C. To correct for differences in bulk refraction all protein preparations were passed over an activated and blocked flow cell to which no protein had been coupled. Effects due to bulk shift were subtracted from experimental data.\nSurface plasmon resonance performed using the BIAcore 3000 (BiaCore, Piscataway, N.J.) was used to assess the kinetics of rhEndostatin/rhTM3 binding. […]"}, "intratumoral blood flow": {"test_system": "intratumoral blood flow", "conditions": "systemic rhEndostatin therapy; cited from earlier work"}, "fibroblasts": {"test_system": "fibroblasts", "experiment": "Proliferation of PDGF-BB or 20% fetal calf serum stimulated fibroblasts (thymidine incorporation, MTT)", "type": "cell-based", "conditions": "stimulated with PDGF-BB or 20% fetal calf serum; compared with pericytes", "description": "Endostatin protein results in an inhibition of proliferation of PDGF-BB or 20% fetal calf serum stimulated primary cultures of pericytes and to a lesser extent fibroblasts. […] The results have been confirmed using a MTT proliferation kit."}, "[2]": {"conditions": "parenteral administration; cited from earlier work"}, "B16-BL6 melanoma cells": {"test_system": "B16-BL6 melanoma cells", "experiment": "B16-BL6 experimental metastasis assay", "type": "in vivo, C57BL/6J mice", "conditions": "dose of 1.3 nmol rhEndostatin"}, "HUVEC microfilaments": {"test_system": "HUVEC microfilaments", "experiment": "Fluorescent staining of formalin fixed endothelial cells with Alexa 488-labeled rhEndostatin", "type": "cell-based, human", "conditions": "40 μg/ml Alexa 488-labeled rhEndostatin with anti-tropomyosin TM311; HUVECs", "procedure": "(A), HUVECs, (B), HAECs and (C), HMVECs were incubated in the presence of 40 micrograms per milliliter (μg/ml) Alexa 488-labeled rhEndostatin and photographed at 100× magnification under Alexa 488 (green) excitation wavelength. (D) and (E), HUVECs were incubated simultaneously in anti-tropomyosin TM311 ascites fluid and 40 micrograms per milliliter (μg/ml) Alexa 488-labeled rhEndostatin followed by incubation in Alexa 594 conjugated goat anti-mouse IgG (H+L). The same field was photographed under Alexa 488 (green) and Alexa 594 (red) excitation wavelengths at 100× magnification.\nHUVECs were incubated in the presence of 40 micrograms per milliliter (μg/ml) Alexa 488-labeled rhEndostatin alone (A), or in the presence of a 50-fold molar excess of control peptide (B), or E37 peptide (C). Cells were photographed using the same exposure times at 100x magnification under Alexa 488 (green) excitation wavelength.\nTo detect the binding of Alexa-labeled rhEndostatin 1×10^4 HUVEC, HMVEC and HAECs were plated on 1.5% gelatin coated Nalge Nunc Lab Tek II chamber slides (Naperville, Ill.) and fixed in 10% neutral buffered formalin followed by a methanol wash. The chamber slides were incubated in PBS/1% calf serum containing 40 μg/ml (2 μM) of Alexa 488-labeled rhEndostatin (Narum et al., manuscript in preparation) for 1 hr at room temperature. The slides were washed in PBS, coverslips mounted using fluorescent mounting media (Kirkegaard and Perry Laboratories, Gaithersburg, Md.) and cells photographed under Alexa 488 excitation wavelength. Co-localization studies were performed as above except cells were incubated in PBS/1% calf serum containing 1:200 mouse anti-tropomyosin TM311 (Sigma, St. Louis, Miss.) and 40 μg/ml of Alexa 488-labeled rhEndostatin followed by incubation with goat anti-mouse IgG (H+L) conjugated to Alexa 594 (Molecular Probes, Eugene, Oregon). The same fields were photographed under Alexa 488 and Alexa 594 wavelengths. […]"}},
  "data": [
    {"molecule": "B1", "values": [
      {"measurement": "Kd", "setting": "[1]", "value": "~100", "unit": "µM"},
      {"measurement": "reduction of intratumoral blood flow", "setting": "intratumoral blood flow", "value": 50, "unit": "%"},
      {"measurement": "thymidine incorporation into fibroblasts", "setting": "fibroblasts", "value": "to a lesser degree"},
      {"measurement": "circulating levels", "setting": "[2]", "value": "nM range"},
      {"measurement": "inhibition of lung metastases inferred from dose titration of rhEndostatin (Sim et al)", "setting": "B16-BL6 melanoma cells", "value": 77, "unit": "%"},
      {"measurement": "localization of fluorescently labeled rhEndostatin in fixed cells", "setting": "HUVEC microfilaments", "value": "co-localized to HUVEC microfilaments"}
    ]}
  ]
}
